Laboratory results reported in patent publication US6399758B1, “Nucleic acids for reducing carbohydrate epitopes” (The Austin Research Institute, priority 1996, dated 2002).
Where two headings read alike, the source gives them in different places.

B1: pFUT2: pig Secretor type α(1,2)-fucosyltransferase expressed in COS cells; label also used for the plasmid encoding it (protein, UniProt Q10982 1-340, looked up)
Galactoside …: MLSMQASFFFPTGPFILFVFTASTIFHLQQRMVKIQPTWELQMVTQVTTESPSSPQLKGMWTINAIGRLGNQMGEYATLYALARMNGRPAFIPPEMHSTLAPIFRITLPVLHASTARRIPWQNYHLNDWMEERYRHIPGEYVRLTGYPCSWTFYHHLRTEILREFTLHNHVREEAQDFLRGLRVNGSRPSTYVGVHVRRGDYVHVMPNVWKGVVADRRYLEQALDWFRARYRSPVFVVSSNGMAWCRENINASRGDVVFAGNGIEGSPAKDFALLTQCNHTVMTIGTFGIWAAYLAGGETIYLANYTLPDSPFLKLFKPEAAFLPEWIGIEADLSPLLKH
B2: pFUT1: pig H type α(1,2)-fucosyltransferase expressed in COS cells; label also used for the plasmid encoding it (protein, UniProt Q29043 1-365, looked up)
Galactoside …: MWVPSRRHLCLTFLLVCVLAAIFFLNVYQDLFYSGLDLLALCPDHNVVSSPVAIFCLAGTPVHPNASDSCPKHPASLSGTWTIYPDGRFGNQMGQYATLLALAQLNGRQAFIQPAMHAVLAPVFRITLPVLAPEVDRHAPWRELELHDWMSEDYAHLKEPWLKLTGFPCSWTFFHHLREQIRSEFTLHDHLRQEAQGVLSQFRLPRTGDRPSTFVGVHVRRGDYLRVMPKRWKGVVGDGAYLQQAMDWFRARYEAPVFVVTSNGMEWCRKNIDTSRGDVIFAGDGREAAPARDFALLVQCNHTIMTIGTFGFWAAYLAGGDTIYLANFTLPTSSFLKIFKPEAAFLPEWVGINADLSPLQMLAGP
B3: rabbit FUT1: rabbit α(1,2)-fucosyltransferase FUT1, literature homologue (protein, UniProt Q10979 1-373, looked up)
Galactoside …: MWPPSRRQLCLAFLLVCALSAFSFLLHLHQDLFRNGLALSLPCLERQPVPAPVAIVCLPVTSPASNASSCAGRPAAPSGIWTIHPDGRFGNQMGQYATLLALAQLNGRRAFILPAMHAALAPVFRITLPVLAPEVNRRTSWKQLLLHDWMSEEYSRLEDPFLKFTGFPCSWTFFHHVREQIRREFTLHDHLREEAQRLLGKLRLGRTGARPRTFVGVHVRRGDYLQVMPQRWKGVVGDRAYLQQAMDWFRARHEAPIFVVTSNGMKWCWENIDASRGDVVFAGNGLESSPAKDFALLTQCNHTVMTIGTFGFWAAYLAGGDTVYLANFTLPDSEFLKIFKPEAAFLPEWVGINADLSPVRTLSGSWRPWRFLG
B4: rabbit FUT2: rabbit α(1,2)-fucosyltransferase FUT2, literature homologue (protein, UniProt Q10983 1-354, looked up)
Galactoside …: MRFAPDYVLCPPTATRRLRATHPSVSTIYFLFTIFVVSTVFHCHQRLALVPAPWAYSARVVVVPGHLPREGMWTINAMGRLGNQMGEYATLYALAKENGRPAYIPAQMHSTLAPIFRISLPVLHSSTASRVPWQNYHLNDWMEERYRHIPVPYVRLTGYPCSWTFYHHLRHEILREFTLHDHVREEAQAFLRGLRVNGSRPSTFVGVHVRRGDYVRVMPQVWKGVVADRGYLEQALDWFRAPTAPPVFVVTSNGMAWCRENIDASRGDVVFAGNGLEGSPAKDFALLTQCNHTVMTIGTFGFWAAYLTGGDTVYLANYTAPDSPFHLVFKPEAAFLPEWVGITANMGRALWSGL
B5: human FUT1: human α(1,2)-fucosyltransferase FUT1 (H transferase), literature homologue (protein, UniProt P19526 1-365, looked up)
Galactoside …: MWLRSHRQLCLAFLLVCVLSVIFFLHIHQDSFPHGLGLSILCPDRRLVTPPVAIFCLPGTAMGPNASSSCPQHPASLSGTWTVYPNGRFGNQMGQYATLLALAQLNGRRAFILPAMHAALAPVFRITLPVLAPEVDSRTPWRELQLHDWMSEEYADLRDPFLKLSGFPCSWTFFHHLREQIRREFTLHDHLREEAQSVLGQLRLGRTGDRPRTFVGVHVRRGDYLQVMPQRWKGVVGDSAYLRQAMDWFRARHEAPVFVVTSNGMEWCKENIDTSQGDVTFAGDGQEATPWKDFALLTQCNHTIMTIGTFGFWAAYLAGGDTVYLANFTLPDSEFLKIFKPEAAFLPEWVGINADLSPLWTLAKP
B6: human FUT2: human α(1,2)-fucosyltransferase FUT2 (secretor), literature homologue (protein, UniProt Q10981 1-343, looked up)
Galactoside …: MLVVQMPFSFPMAHFILFVFTVSTIFHVQQRLAKIQAMWELPVQIPVLASTSKALGPSQLRGMWTINAIGRLGNQMGEYATLYALAKMNGRPAFIPAQMHSTLAPIFRITLPVLHSATASRIPWQNYHLNDWMEEEYRHIPGEYVRFTGYPCSWTFYHHLRQEILQEFTLHDHVREEAQKFLRGLQVNGSRPGTFVGVHVRRGDYVHVMPKVWKGVVADRRYLQQALDWFRARYSSLIFVVTSNGMAWCRENIDTSHGDVVFAGDGIEGSPAKDFALLTQCNHTIMTIGTFGIWAAYLTGGDTIYLANYTLPDSPFLKIFKPEAAFLPEWTGIAADLSPLLKH

What was measured:
[1] = test system: α(1,2)-fucosyltransferase; assay: α(1,2)-fucosyltransferase activity in lysates of transfected COS cells; format: biochemical, pig; settings: mock-transfected baseline 1.1
Experimental: (§1) Cells were washed twice with phosphate buffered saline and lysed in either 1% Triton X100/100 mM Tris pH7.0 or 1% Triton X100/100 mM sodium cacodylate pH 6.5/25 mM MnCl2 at 4° C. for 30 min, lysates centrifuged and the supernatant collected and stored at −70° C. Protein concentration was determined by the Bradford test, using bovine serum albumin as a standard; 5-20 μg of cell extract was used per transferase assay. The assay for α-1,2 fucosyltransferase involved mixing cell extracts and acceptor (75 mM pheny-β-Dgalactoside (Sigma)) in 50 μl 50 mM MOPS (3-[N-Morpholino]propanesulphonic acid) pH 6.5; 20 mM MnCl2; 5 mM ATP; 3 μM GDP[^14C]-Fuc (specific activity 287 mCi/mmol, Amersham International plc, Amersham, UK) and incubation for 2 h at 37° C. The reaction was terminated by the addition of ethanol, and the incorporated ^14C-Fuc determined by liquid scintillation counting after separation in Sep-Pak C18 cartridges (Waters-Millipore, Millford, Mass.). In all cases the parallel reactions were performed in the absence of added acceptor molecules, to allow for the calculation of specific incorporation.
Cell lysates prepared from COS cells transfected with pFUT2 and pFUT1 were assayed for α(1,2)-fucosyltransferase activity. […] The enzyme activity measured in these lysates reflects the expression of H substance on the cell surface as shown in Example 2.

[2] = Enzyme kinetics, apparent Km, Type I substrate; format: biochemical; settings: Type I Galβ(1,3)GlcNAc; lysates of transfected COS cells
Experimental: as §1
(§2) Cell lysates prepared from COS cells transfected in the manner described in Example 1 with pFUT2 (pig Se), pFUT1 (pig H transferase), or with vector alone were assayed for α(1,2)-fucosyltransferase activity, and the kinetic values were calculated. […]

[3] = Enzyme kinetics, apparent Km, lactose; format: biochemical; settings: Lactose Galβ(1,4)Glc; lysates of transfected COS cells
Experimental: as §1, §2

[4] = Enzyme kinetics, apparent Km, Type III substrate; format: biochemical; settings: Type III Galβ(1,3)GalNAc; lysates of transfected COS cells
Experimental: as §1, §2

[5] = Enzyme kinetics, apparent Km, Type II substrate; format: biochemical; settings: Type II Galβ(1,4)GlcNAc; lysates of transfected COS cells
Experimental: as §1, §2

[6] = Enzyme kinetics, apparent Km, Type IV substrate; format: biochemical; settings: Type IV Galβ(1,4)Gal; lysates of transfected COS cells
Experimental: as §1, §2

[7] = Type III Galβ(1,3)GalNAc; literature ref 34; read-out: Km reported; cited from earlier work
[8] = Type I Galβ(1,3)GlcNAc; literature refs 34, 35; read-out: Km reported; cited from earlier work
[9] = Type II Galβ(1,4)GlcNAc; literature refs 34, 37; read-out: Km reported; cited from earlier work

Molecule	α(1,2)-fucosyltransferase activity [1]	Km [2]	Km [3]	Km [4]	Km [5]	Km [6]	Km [7]	Km [8]	Km [9]
B1	151.1 nmol/h/mg	1.3 mM	7.4 mM	0.2 mM	4.4 mM	1.5 mM	–	–	–
B2	140.0 nmol/h/mg	6 mM	1.9 mM	14 mM	3.7 mM	4.2 mM	–	–	–
B3	–	–	–	–	–	–	5.8 mM	3.1 mM	4.2 mM
B4	–	–	–	–	–	–	1 mM	1.5 mM	6.7 mM
B5	–	–	–	–	–	–	–	2 mM	1.9 mM
B6	–	–	–	–	–	–	–	1 mM	5.7 mM
